We go through 27 sequences from the Immune Epitope Database (IEDB).

Among the targets are HLA-A*68:01; HLA-A*31:01; HLA-A*33:01; HLA-A*03:01; HLA-A*11:01.
Common to all, as to test: IEDB peptide-MHC binding, purified MHC/competitive/radioactivity; filed as Kd, often an IC50 or EC50 that approximates it; ≥ and ≤ were set here for values at or beyond the usual limits of such assays
[1] abbreviates: source organism: Vaccinia virus WR.
The mark [2] stands for this setting: source organism: Dengue virus 4 Philippines/H241/1956.
Setting [3] is: source organism: SARS coronavirus Tor2.
Where [4] appears, read: source organism: Lymphocytic choriomeningitis virus (strain Armstrong).
[5] abbreviates: source organism: Dengue virus 1 Brazil/97-11/1997.
[6] abbreviates: source organism: Dengue virus 2 Jamaica/1409/1983.
Where [7] appears, read: source organism: Mammarenavirus machupoense.
Setting [8] is: source organism: Murray valley encephalitis virus (strain MVE-1-51).

The Kd is the concentration at which binding is half-saturated. Regarding YSHLLPTQR, the Kd with HLA-A*68:01 (setting [1]) is 0.0255 µM; in the assay with HLA-A*31:01 (setting [1]) it was 0.023 µM; with HLA-A*33:01 (setting [1]), 0.892 µM; with HLA-A*03:01 (setting [1]), 4.03 µM; with HLA-A*11:01 (setting [1]) it was 1.17 µM.

In the case of GLSSRATWAK, the values for the Kd in the assay with HLA-A*03:01 (setting [2]) and with HLA-A*11:01 (setting [2]) were 0.0352 µM and 0.164 µM, respectively.

As to NAFNCTFEY, the Kd was 0.00972 µM with HLA-A*68:01 (setting [3]); 11.5 µM with HLA-A*31:01 (setting [3]); 1.87 µM with HLA-A*33:01 (setting [3]); 3.97 µM with HLA-A*03:01 (setting [3]); 0.0199 µM with HLA-A*11:01 (setting [3]).

SVKSFEIDK: the Kd turned out to be 0.729 µM with HLA-A*68:01 (setting [3]); 1.11 µM with HLA-A*31:01 (setting [3]); 12.2 µM with HLA-A*33:01 (setting [3]); 1.56 µM with HLA-A*03:01 (setting [3]); 0.137 µM in the assay with HLA-A*11:01 (setting [3]).

Take VTMFEALPH: the Kd with HLA-A*68:01 (setting [4]) was 18.7 µM; with HLA-A*31:01 (setting [4]) it was not below 77.9 µM; in the assay with HLA-A*33:01 (setting [4]), not below 77.7 µM; with HLA-A*03:01 (setting [4]), 0.467 µM; with HLA-A*11:01 (setting [4]), 0.0156 µM.

Take EATARGARR: the figures for the Kd with HLA-A*68:01 (setting [5]) and with HLA-A*33:01 (setting [5]) were 0.0125 µM and 0.0367 µM, respectively.

For IGKMFESTYR, the equilibrium dissociation constant (Kd) with HLA-A*33:01 (source organism: Dengue virus 4 Dominica/814669/1981) was 0.176 µM.

On to LMCHATFTMR, for which the results for the Kd with HLA-A*31:01 (setting [6]) and with HLA-A*33:01 (setting [6]) were 0.00731 µM and 0.089 µM, respectively.

On to IICEDAMYY, for which the Kd in the assay with HLA-A*68:01 (setting [1]) was 3.66 µM; with HLA-A*31:01 (setting [1]), not below 61.4 µM; with HLA-A*33:01 (setting [1]), not below 77.7 µM; with HLA-A*03:01 (setting [1]), 2.36 µM; with HLA-A*11:01 (setting [1]), 0.196 µM.

LFKRERDAIK: the Kd was not below 35.5 µM with HLA-A*68:01 (setting [1]); 1.43 µM in the assay with HLA-A*31:01 (setting [1]); 8.28 µM with HLA-A*33:01 (setting [1]); not below 30 µM with HLA-A*03:01 (setting [1]); not below 69.8 µM with HLA-A*11:01 (setting [1]).

Turning to NQLESKVSGK, the Kd with HLA-A*68:01 (setting [3]) was 6.96 µM; with HLA-A*31:01 (setting [3]), not below 42.5 µM; in the assay with HLA-A*33:01 (setting [3]), not below 70 µM; with HLA-A*03:01 (setting [3]), 9.48 µM; with HLA-A*11:01 (setting [3]) it was 14.7 µM.

Consider TFIMLEGETK, for which the dissociation constant Kd was 0.176 µM with HLA-A*68:01 (setting [1]); 0.816 µM with HLA-A*31:01 (setting [1]); 3.42 µM with HLA-A*33:01 (setting [1]); 0.0388 µM with HLA-A*03:01 (setting [1]); 0.0118 µM with HLA-A*11:01 (setting [1]).

Consider SSFDYCGTDH, for which the Kd was not below 41.8 µM with HLA-A*68:01 (setting [7]); not below 31.8 µM with HLA-A*31:01 (setting [7]); not below 42 µM in the assay with HLA-A*33:01 (setting [7]); not below 70 µM in the assay with HLA-A*03:01 (setting [7]); not below 69.7 µM in the assay with HLA-A*11:01 (setting [7]).

With QAIEPSGNNY, the Kd in the assay with HLA-A*68:01 (setting [1]) was 0.692 µM; with HLA-A*31:01 (setting [1]), 3.44 µM; with HLA-A*33:01 (setting [1]), not below 70 µM; in the assay with HLA-A*03:01 (setting [1]), not below 70.1 µM; with HLA-A*11:01 (setting [1]), 4.82 µM.

Turning to LFCLLNRYFR, the equilibrium dissociation constant (Kd) in the assay with HLA-A*68:01 (setting [3]) amounted to 0.251 µM; with HLA-A*31:01 (setting [3]), 0.0129 µM; with HLA-A*33:01 (setting [3]) it was 0.0361 µM; with HLA-A*03:01 (setting [3]), 1.24 µM; in the assay with HLA-A*11:01 (setting [3]) it was 0.55 µM.

Consider VQTKPGIFK, for which the Kd amounted to 0.274 µM with HLA-A*03:01 (setting [8]) and 0.435 µM with HLA-A*11:01 (setting [8]).

Turning to MPSMKRFRR, the Kd with HLA-A*33:01 (setting [6]) stood at 0.00672 µM.

For the sequence LSSKGLACYR, the dissociation constant Kd with HLA-A*68:01 (setting [1]) was found to be 0.00475 µM; with HLA-A*31:01 (setting [1]), 0.00687 µM; with HLA-A*33:01 (setting [1]), 0.047 µM; with HLA-A*03:01 (setting [1]), 0.129 µM; in the assay with HLA-A*11:01 (setting [1]), 0.0438 µM.

On to TLDQLEDSEY, for which the Kd was 4.07 µM with HLA-A*68:01 (setting [1]); 14.4 µM with HLA-A*31:01 (setting [1]); not below 40.3 µM with HLA-A*33:01 (setting [1]); 8.62 µM with HLA-A*03:01 (setting [1]); 1.71 µM in the assay with HLA-A*11:01 (setting [1]).

In the case of LLFQLCTFTK, the Kd with HLA-A*68:01 (setting [3]) was determined as 0.0663 µM; with HLA-A*31:01 (setting [3]), 0.197 µM; in the assay with HLA-A*33:01 (setting [3]), 6.91 µM; in the assay with HLA-A*03:01 (setting [3]) it was 0.0152 µM; with HLA-A*11:01 (setting [3]), 0.0163 µM.

TAVCMKCFK: the Kd in the assay with HLA-A*68:01 (setting [1]) came out at 0.0113 µM; in the assay with HLA-A*31:01 (setting [1]) it was 0.448 µM; in the assay with HLA-A*33:01 (setting [1]), 4.46 µM; in the assay with HLA-A*03:01 (setting [1]), 0.211 µM; with HLA-A*11:01 (setting [1]), 0.0102 µM.

With TLFVEECLR, the Kd turned out to be 0.0301 µM in the assay with HLA-A*68:01 (setting [2]) and 0.0863 µM with HLA-A*33:01 (setting [2]).

As to FINFFNLLAK, the Kd in the assay with HLA-A*68:01 (setting [1]) was found to be 0.00653 µM; in the assay with HLA-A*31:01 (setting [1]) it was 1.82 µM; in the assay with HLA-A*33:01 (setting [1]), 0.427 µM; with HLA-A*03:01 (setting [1]), 0.00896 µM; in the assay with HLA-A*11:01 (setting [1]), 0.000273 µM.

As for KVTEVRGYTK, the Kd with HLA-A*11:01 (source organism: Dengue virus 3 Martinique/1243/1999) came to 0.201 µM.

With AVHECFVKR, the Kd in the assay with HLA-A*68:01 (setting [3]) came out at 0.0796 µM; in the assay with HLA-A*31:01 (setting [3]), 0.039 µM; in the assay with HLA-A*33:01 (setting [3]), 1.27 µM; with HLA-A*03:01 (setting [3]), 3.32 µM; with HLA-A*11:01 (setting [3]), 0.44 µM.

On to AVRYYDGNIY, for which the Kd with HLA-A*68:01 (setting [1]) was 3.04 µM; with HLA-A*31:01 (setting [1]), not below 70 µM; with HLA-A*33:01 (setting [1]), not below 70 µM; in the assay with HLA-A*03:01 (setting [1]), 2.5 µM; with HLA-A*11:01 (setting [1]), 0.272 µM.

As to DLVKSSFVK, the Kd amounted to 0.077 µM with HLA-A*68:01 (setting [1]); 0.0942 µM with HLA-A*31:01 (setting [1]); 0.905 µM with HLA-A*33:01 (setting [1]); 1.79 µM with HLA-A*03:01 (setting [1]); 0.127 µM with HLA-A*11:01 (setting [1]).
